Laboratory results: patent US10920201B2, “Rice EPSPS mutant, encoding gene and use thereof” (GEVOTO LLC, priority 2016, dated 2021)

Key:
[1] = tested on: EDCE (E. coli DH5a with EPSPS gene and C-P Lyase gene being knocked out); test: Glyphosate resistance of transformed E. coli in liquid screening culture media (growth saturation index); type: cell-based; parameters: key to Growth Saturation Index: saturation index=0, no growth; saturation index=1, little growth; saturation index=2, half-saturated growth; saturation index=3, flourishing growth, but still having room to grow; saturation index=4, rapid growth, the bacteria having reached a highest (saturated) concentration in the culture media or the growth having reached the limit
Excerpt: 1.6 A double knockout E. coli was transformed (E. Coli DH5a with EPSPS gene and C-P Lyase gene being knocked out, named as EDCE, wherein for a preparation method thereof, reference can be made to a Chinese invention patent with the filing number CN2016103256926, entitled “Method for Screening Glyphosate-resistant Gene, EPSPS Mutant Gene, Defect Strain and Application Thereof”).
In the above, the screening culture media were culture media obtained by adding antibiotic, Spec (Spectinomycin), Gen (Gentamycin), Amp (Ampicillin) of certain concentrations and glyphosate of different concentrations, with M9 as a basic medium. Basic components of the M9 culture medium were as follows: Na2HPO4 13˜14 g/L, KH2PO4 5.7˜6.3 g/L, NaCl 0.9˜1.1 g/L, NH4Cl 1.8˜2.2 g/L, glucose 37˜43 g/L, MgSO4˜7H2O 48˜52 g/L, and CaCl2) 21˜23 g/L.
In the present example, EDCE transformed by the wild-type rice EPSPS gene (named as OsE gene, SEQ ID NO. 3) was taken as a control group, and the monoclonal resistant bacterium containing the OsEM gene (SEQ ID NO. 2) obtained in step 3.1 of Example 1 was taken as an experiment group, to detect the glyphosate resistance of the OsEM gene in bacteria.
The control group and the experiment group were respectively inoculated into culture media (screening culture media) containing glyphosate concentrations of 0 mM, 5 mM, 10 mM, 20 mM, 50 mM, 75 mM, and 100 mM, to observe growth states of bacterial colony in each group, denoted by growth saturation index (saturation index=0, no growth; saturation index=1, little growth; saturation index=2, half-saturated growth; saturation index=3, flourishing growth, but still having room to grow; saturation index=4, rapid growth, the bacteria having reached a highest (saturated) concentration in the culture media or the growth having reached the limit).

[2] = tested on: EPSPS and C-P Lyase deficient E. coli; test: Growth of transformed E. coli on solid culture media containing glyphosate (FIG. 4); type: cell-based; settings: solid culture medium
Procedure: Besides, the glyphosate-resistant CP4-EPSPS gene mostly widely used currently in genetically modified crops in agriculture was further used in the present example as positive control, and E. coli respectively transformed by OsE gene (negative control group), OsEM gene (experiment group) and CP4-EPSPS gene (positive control group) were inoculated onto solid culture media respectively containing glyphosate of concentration of 0 mM, 1 mM, 50 mM, 100 mM, to observe growth states of bacterial colony in each group.

soybean plants = test: Glyphosate spray test on soybean plants transformed with OsEM gene; type: in vivo
Excerpt: In the present example, wild-type soybean plants were taken as controls, the positive soybean plants transformed with OsEM gene obtained in Example 4 were taken as experiment group, to verify glyphosate resistance of OsEM gene in plants. An experiment method is as follows:
1 The OsEM transformed positive soybean plants 10-20 cm tall and 3 wild-type soybean plants with a similar size were numbered and then randomly arranged in an experiment area (preventing leaves from overlapping).
2 The area with the plants was measured, and glyphosate was sprayed at a dosage of 1060 g/hectare (0.106 g/m^2).
3 Commercially available Roundup® 41% ammonium glyphosate was used. Amount was calculated according to the experiment area and dosage of 0.106 g/m^2, then diluted 20 times with water, and uniformly sprayed on the plants in the experiment area.
4 After leaf surfaces were dry, the plants in the experiment group and the control group were moved into a greenhouse.
5 Growth states of the plants were evaluated and recorded.
Afterwards, plants grew well were transplanted to larger pots to grow, and the glyphosate (having a concentration of […]) was sprayed for a second time on a 21st day. After 2 weeks, the growth states of the plants in each group were captured and recorded.

[3] = 7th day after first glyphosate spray, 1060 g/hectare (0.106 g/m^2)

B1: OsEM: Rice EPSPS mutant gene (SEQ ID NO. 2) encoding 5-enolpyruvylshikimate-3-phosphate synthase mutant (SEQ ID NO. 1), 8 amino acid mutations (protein)
chain: MASNAAAAAAKAEEIVLQPIREISGAVQLPGSKSLSNRILLLSALSEGTTVVDNLLNSEDVHYMLEALKGLGLSVEADKVAKRAVVVGCGGKFPVEKDAKEEVQLFLGNAATAMRSLTAAVTAAGGNATYVLDGVPRMRERPIGDLVVGLKRLGADVDCFLGTECPPVRVKGIGGLPGGKVKLSGSISSQYLSALLMAAPLALGDVEIEIIDRLISIPYVEMTLRLMERFGVKAEHSDSWDRFYIKGGQQYESPGNAYVEGDASSASYFLAGAAITGGTVTVQGCGTTSLQGDVKFAEVLEMMGAKVTWTDTSVTVTGPPREPYGKKHLKAVDVNMNKMPDAAMTLAVVALFADGPTAIRDVASWRVKETERMVAIRTELTKLGASVEEGPDYCIITPPEKLNITAIDTYDDHRMAMAFSLAACADVPVTIRDPGCTRKTFPNYFDVLSTFVRN
Growth Saturation Index ([1]; 0 mM glyphosate in culture medium): 4 | Growth Saturation Index ([1]; 5 mM glyphosate in culture medium): 4 | Growth Saturation Index ([1]; 10 mM glyphosate in culture medium): 4 | Growth Saturation Index ([1]; 20 mM glyphosate in culture medium): 4 | Growth Saturation Index ([1]; 50 mM glyphosate in culture medium): 4 | Growth Saturation Index ([1]; 75 mM glyphosate in culture medium): 4 | Growth Saturation Index ([1]; 100 mM glyphosate in culture medium): 4 | glyphosate concentration to which resistance is endowed ([1]; E. coli transformed by the gene): 100 mM | growth state of bacterial colony ([2]; 0 mM glyphosate): could grow normally | growth state of bacterial colony ([2]; 1 mM glyphosate): could grow normally | growth state of bacterial colony ([2]; 50 mM glyphosate): could grow normally | growth state of bacterial colony ([2]; 100 mM glyphosate): could grow normally | growth state of plants after second glyphosate spray (FIG. 7) (soybean plants; 1.06 g/m^2 glyphosate sprayed on 21st day, recorded after 2 weeks): could grow continuously | number of plants with Growth State + (low glyphosate resistance) (soybean plants; [3]): 3 | number of plants with Growth State ++ (medium glyphosate resistance) (soybean plants; [3]): 1 | number of plants with Growth State +++ (high glyphosate resistance) (soybean plants; [3]): 4 | number of plants with Growth State − (no glyphosate resistance) (soybean plants; [3]): 2 | glyphosate concentration to which resistance is endowed (soybean plants; soybean plants transformed by the gene): 1.06 g/m^2
